Reference: the supplement of paper PMC9112550, “Optimization of the antimicrobial peptide Bac7 by deep mutational scanning” (BMC Biology, 2022)

System: Escherichia coli TOP10
Assay: shrunken log2 fold change of peptide-encoding DNA abundance (4.5 h post-induction vs induction); higher = less antimicrobial activity (less host growth inhibition)
Conditions: time post-induction: 4.5 h; library: site-saturation at positions 5, 18, 19, 20
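Further: peptides expressed intracellularly from a pBAD plasmid library in pooled LB shake-flask culture, induced with 0.3% L-arabinose, DNA abundance read by NGS, three biological replicates, DESeq2 with apeglm shrinkage.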

RRIRERPPRLPRPRPRPAVMPRP and RRIRKRPPRLPRPRPRPSGCPRP are within 0.2 log units of each other in “shrunken log2 fold change” value: 0.0088 for the first, -0.00526 for the second.

RRIRMRPPRLPRPRPRPNQKPRP and RRIRHRPPRLPRPRPRPADDPRP are within 0.2 log units of each other in “shrunken log2 fold change” value: 0.00203 for the first, 0.083 for the second.

RRIRVRPPRLPRPRPRPLAHPRP and RRIRNRPPRLPRPRPRPYHRPRP are within 0.2 log units of each other in “shrunken log2 fold change” value: 0.00485 for the first, -0.121 for the second.

Compared with RRIRARPPRLPRPRPRPAYEPRP, RRIRTRPPRLPRPRPRPNQYPRP is lower in “shrunken log2 fold change” value: 0.0749 for the first, -0.446 for the second.

Going from RRIRARPPRLPRPRPRPDFAPRP to RRIRGRPPRLPRPRPRPVGAPRP, the “shrunken log2 fold change” value rises from 0.533 to 1.13.

First: RRIRTRPPRLPRPRPRPLQYPRP
Second: RRIRNRPPRLPRPRPRPQCMPRP
The “shrunken log2 fold change” value of the first is lower: -0.0374 for the first, 2.42 for the second.

RRIRTRPPRLPRPRPRPNAEPRP and RRIRVRPPRLPRPRPRPAHDPRP are within 0.2 log units of each other in “shrunken log2 fold change” value: 0.25 for the first, 0.113 for the second.

First: RRIRTRPPRLPRPRPRPHLHPRP
Second: RRIRVRPPRLPRPRPRPILRPRP
The “shrunken log2 fold change” value of the first is lower: -0.844 for the first, 0.0599 for the second.

RRIRARPPRLPRPRPRPRNYPRP and RRIRDRPPRLPRPRPRPTGFPRP are within 0.2 log units of each other in “shrunken log2 fold change” value: 0.0668 for the first, 0.0286 for the second.

RRIRERPPRLPRPRPRPLIAPRP and RRIRQRPPRLPRPRPRPWLIPRP are within 0.2 log units of each other in “shrunken log2 fold change” value: -0.128 for the first, -0.289 for the second.

Compared with RRIRKRPPRLPRPRPRPPGEPRP, RRIRIRPPRLPRPRPRPLRTPRP is lower in “shrunken log2 fold change” value: 0.617 for the first, -0.0568 for the second.

First: RRIRKRPPRLPRPRPRPYLMPRP
Second: RRIRHRPPRLPRPRPRPYTGPRP
The “shrunken log2 fold change” value of the first is higher: -0.0192 for the first, -0.304 for the second.

RRIRPRPPRLPRPRPRPRCNPRP and RRIRWRPPRLPRPRPRPKFTPRP are within 0.2 log units of each other in “shrunken log2 fold change” value: -0.0415 for the first, -0.119 for the second.

RRIRRRPPRLPRPRPRPWYEPRP and RRIRFRPPRLPRPRPRPFQVPRP are within 0.2 log units of each other in “shrunken log2 fold change” value: -0.16 for the first, -0.309 for the second.

RRIRRRPPRLPRPRPRPTCNPRP and RRIRVRPPRLPRPRPRPHVQPRP are within 0.2 log units of each other in “shrunken log2 fold change” value: 0.026 for the first, -0.0929 for the second.

Compared with RRIRVRPPRLPRPRPRPLRKPRP, RRIRTRPPRLPRPRPRPHRVPRP is lower in “shrunken log2 fold change” value: 0.317 for the first, 0.0498 for the second.

Going from RRIRDRPPRLPRPRPRPHMQPRP to RRIRQRPPRLPRPRPRPMLHPRP, the “shrunken log2 fold change” value rises from -0.368 to -0.0433.

RRIRWRPPRLPRPRPRPHHEPRP and RRIRDRPPRLPRPRPRPPFNPRP are within 0.2 log units of each other in “shrunken log2 fold change” value: -0.262 for the first, -0.217 for the second.

RRIRRRPPRLPRPRPRPEHRPRP and RRIRIRPPRLPRPRPRPPFWPRP are within 0.2 log units of each other in “shrunken log2 fold change” value: 0.343 for the first, 0.288 for the second.

Compared with RRIRLRPPRLPRPRPRPCVTPRP, RRIRARPPRLPRPRPRPEEFPRP is higher in “shrunken log2 fold change” value: -0.498 for the first, 0.00844 for the second.

RRIRQRPPRLPRPRPRPACYPRP and RRIRARPPRLPRPRPRPHQHPRP are within 0.2 log units of each other in “shrunken log2 fold change” value: -0.18 for the first, -0.109 for the second.

Compared with RRIRPRPPRLPRPRPRPNACPRP, RRIRVRPPRLPRPRPRPACKPRP is lower in “shrunken log2 fold change” value: 0.195 for the first, -0.0847 for the second.

Compared with RRIRWRPPRLPRPRPRPNYKPRP, RRIRERPPRLPRPRPRPWIPPRP is higher in “shrunken log2 fold change” value: -0.552 for the first, 0.0136 for the second.

Compared with RRIRMRPPRLPRPRPRPHYTPRP, RRIRMRPPRLPRPRPRPSIYPRP is lower in “shrunken log2 fold change” value: -0.399 for the first, -0.726 for the second.

Compared with RRIRSRPPRLPRPRPRPNQNPRP, RRIRVRPPRLPRPRPRPWRLPRP is higher in “shrunken log2 fold change” value: -0.274 for the first, 0.426 for the second.

Going from RRIRWRPPRLPRPRPRPFPWPRP to RRIRRRPPRLPRPRPRPAASPRP, the “shrunken log2 fold change” value rises from -0.0524 to 0.38.

RRIRMRPPRLPRPRPRPICTPRP and RRIRLRPPRLPRPRPRPKWQPRP are within 0.2 log units of each other in “shrunken log2 fold change” value: 0.153 for the first, -0.0304 for the second.

First: RRIRCRPPRLPRPRPRPFCLPRP
Second: RRIRGRPPRLPRPRPRPVQHPRP
The “shrunken log2 fold change” value of the first is lower: -0.327 for the first, 0.542 for the second.

Compared with RRIRSRPPRLPRPRPRPNYFPRP, RRIRNRPPRLPRPRPRPNQMPRP is higher in “shrunken log2 fold change” value: -0.828 for the first, -0.153 for the second.

Compared with RRIRNRPPRLPRPRPRPWHPPRP, RRIRKRPPRLPRPRPRPAISPRP is higher in “shrunken log2 fold change” value: -0.277 for the first, 0.214 for the second.

RRIRWRPPRLPRPRPRPPGDPRP and RRIRGRPPRLPRPRPRPASDPRP are within 0.2 log units of each other in “shrunken log2 fold change” value: 0.88 for the first, 0.987 for the second.

Going from RRIRPRPPRLPRPRPRPFNQPRP to RRIRTRPPRLPRPRPRPTENPRP, the “shrunken log2 fold change” value rises from -0.695 to -0.293.

First: RRIRQRPPRLPRPRPRPSVTPRP
Second: RRIRRRPPRLPRPRPRPGAHPRP
The “shrunken log2 fold change” value of the first is lower: -0.0462 for the first, 0.45 for the second.

Compared with RRIRVRPPRLPRPRPRPVRVPRP, RRIRYRPPRLPRPRPRPNYIPRP is lower in “shrunken log2 fold change” value: 0.905 for the first, -1.2 for the second.

First: RRIRSRPPRLPRPRPRPLTVPRP
Second: RRIRFRPPRLPRPRPRPWVRPRP
The “shrunken log2 fold change” value of the first is lower: -0.216 for the first, 0.0245 for the second.

RRIRARPPRLPRPRPRPVVEPRP and RRIRQRPPRLPRPRPRPRPVPRP are within 0.2 log units of each other in “shrunken log2 fold change” value: 0.322 for the first, 0.336 for the second.

First: RRIRCRPPRLPRPRPRPKWRPRP
Second: RRIRKRPPRLPRPRPRPLRQPRP
The “shrunken log2 fold change” value of the first is higher: 0.422 for the first, 0.00205 for the second.

First: RRIRKRPPRLPRPRPRPLDPPRP
Second: RRIRCRPPRLPRPRPRPMIHPRP
The “shrunken log2 fold change” value of the first is higher: 0.613 for the first, -0.466 for the second.

Compared with RRIRVRPPRLPRPRPRPIKEPRP, RRIRWRPPRLPRPRPRPWFEPRP is higher in “shrunken log2 fold change” value: -0.327 for the first, -0.0354 for the second.

RRIRFRPPRLPRPRPRPQWVPRP and RRIRSRPPRLPRPRPRPIMQPRP are within 0.2 log units of each other in “shrunken log2 fold change” value: -0.053 for the first, -0.216 for the second.

First: RRIRNRPPRLPRPRPRPWFEPRP
Second: RRIRGRPPRLPRPRPRPHWFPRP
The “shrunken log2 fold change” value of the first is lower: -0.879 for the first, 0.156 for the second.

First: RRIRMRPPRLPRPRPRPRCDPRP
Second: RRIRDRPPRLPRPRPRPFWCPRP
The “shrunken log2 fold change” value of the first is higher: 0.397 for the first, 0.136 for the second.

RRIRLRPPRLPRPRPRPNATPRP and RRIRVRPPRLPRPRPRPMWVPRP are within 0.2 log units of each other in “shrunken log2 fold change” value: 0.0161 for the first, 0.0736 for the second.

RRIRRRPPRLPRPRPRPGIGPRP and RRIRGRPPRLPRPRPRPRNTPRP are within 0.2 log units of each other in “shrunken log2 fold change” value: -0.00887 for the first, 0.0904 for the second.

First: RRIRNRPPRLPRPRPRPWHTPRP
Second: RRIRIRPPRLPRPRPRPYHTPRP
The “shrunken log2 fold change” value of the first is higher: -0.0681 for the first, -1.25 for the second.

RRIRVRPPRLPRPRPRPDVQPRP and RRIRRRPPRLPRPRPRPDFQPRP are within 0.2 log units of each other in “shrunken log2 fold change” value: -0.0199 for the first, -0.135 for the second.

RRIRERPPRLPRPRPRPCMWPRP and RRIRVRPPRLPRPRPRPFDFPRP are within 0.2 log units of each other in “shrunken log2 fold change” value: -0.233 for the first, -0.266 for the second.

RRIRERPPRLPRPRPRPGNSPRP and RRIRHRPPRLPRPRPRPDAFPRP are within 0.2 log units of each other in “shrunken log2 fold change” value: -0.115 for the first, -0.0702 for the second.

Going from RRIRDRPPRLPRPRPRPLWPPRP to RRIRHRPPRLPRPRPRPSGTPRP, the “shrunken log2 fold change” value falls from 0.662 to -0.0258.

Compared with RRIRIRPPRLPRPRPRPDPQPRP, RRIRQRPPRLPRPRPRPECYPRP is higher in “shrunken log2 fold change” value: -0.186 for the first, 0.0583 for the second.

Compared with RRIRVRPPRLPRPRPRPRCVPRP, RRIRCRPPRLPRPRPRPMNAPRP is lower in “shrunken log2 fold change” value: 0.0659 for the first, -0.422 for the second.

Compared with RRIRVRPPRLPRPRPRPYSVPRP, RRIRHRPPRLPRPRPRPLWYPRP is lower in “shrunken log2 fold change” value: -0.265 for the first, -0.923 for the second.

RRIRVRPPRLPRPRPRPNYRPRP and RRIRYRPPRLPRPRPRPYRPPRP are within 0.2 log units of each other in “shrunken log2 fold change” value: 0.0968 for the first, -0.0134 for the second.

RRIRTRPPRLPRPRPRPIGFPRP and RRIRKRPPRLPRPRPRPGHNPRP are within 0.2 log units of each other in “shrunken log2 fold change” value: -0.0989 for the first, -0.0457 for the second.

In the case of RRIRNRPPRLPRPRPRPKMVPRP, the “shrunken log2 fold change” value is reported as -0.13.
